Measured values as given in the Human Domainome abundance scans (Beltran et al. 2025).
± gives the uncertainty stated by the source.

B1: Chromodomain-helicase-DNA-binding protein 5, residues 338 to 390; numbered along this chain, Q8TDI0 (parent)
chain: YETDHQDYCEVCQQGGEIILCDTCPRAYHLVCLDPELEKAPEGKWSCPHCEKE
B2: Membrane-associated guanylate kinase, WW and PDZ domain-containing protein 1, residues 352 to 401; numbered along this chain, Q96QZ7 (parent)
chain: TEELDSELELPAGWEKIEDPVYGIYYVDHINRKTQYENPVLEAKRKKQLE

Variants of: B1
Experiment: abundance fitness (aPCA) (normalised: wild type 0, dead -1); higher = more abundant; growth selection in yeast, the domain comes from the species named
Details: Homo sapiens

Variant	abundance fitness
E53Y	-0.219 ± 0.43
E53S	-0.548 ± 0.25
E53D	0.016 ± 0.3
E53G	0.086 ± 0.13
E53W	-0.526 ± 0.23
E53A	-0.246 ± 0.16
E53R	-0.341 ± 0.16
E53V	-0.29 ± 0.18
E53K	-0.173 ± 0.4
E53L	0.022 ± 0.29
E53C	0.222 ± 0.23
H49Q	0.032 ± 0.23
H49R	-0.291 ± 0.16
H49Y	-0.042 ± 0.2
H49P	-0.024 ± 0.26
H49S	-0.312 ± 0.24
H49W	-0.69 ± 0.3
H49V	-0.45 ± 0.18
H49T	0.139 ± 0.26
E51K	0.031 ± 0.2
E51R	-0.396 ± 0.12
E51Q	-0.005 ± 0.15
E51H	-0.367 ± 0.23
E51T	0.088 ± 0.14

Variant	abundance fitness
E51P	-0.367 ± 0.15
E51W	-0.25 ± 0.18
E51A	-0.12 ± 0.093
E51L	-0.105 ± 0.1
E51N	0.086 ± 0.19
E51V	-0.209 ± 0.099
E51I	-0.387 ± 0.16
E51Y	-0.207 ± 0.21
E51S	-0.365 ± 0.11
E51D	-0.114 ± 0.15
E51G	-0.095 ± 0.1
E51C	-0.123 ± 0.19
E51M	-0.401 ± 0.17
C50A	-0.503 ± 0.13
C50S	-0.416 ± 0.12
C50N	-0.498 ± 0.2
C50F	-0.654 ± 0.23
C50R	-0.71 ± 0.12
C50Q	-0.365 ± 0.17
C50M	-1.01 ± 0.34
C50K	-0.405 ± 0.19
C50Y	-0.507 ± 0.17
C50H	0.231 ± 0.18
C50P	-0.499 ± 0.18

Variant	abundance fitness
C50W	-0.718 ± 0.18
C50D	-0.626 ± 0.24
C50E	0.025 ± 0.14
C50T	-0.409 ± 0.19
C50G	-0.55 ± 0.1
C50L	-0.575 ± 0.13
K52L	-0.249 ± 0.14
K52G	0.028 ± 0.099
K52M	0.083 ± 0.18
K52C	-0.381 ± 0.23
K52R	-0.109 ± 0.13
K52N	-0.378 ± 0.29
K52W	-0.082 ± 0.17
K52V	-0.324 ± 0.12
K52S	-0.115 ± 0.14
K52I	-1.1 ± 0.42
K52E	-0.288 ± 0.17
K52Q	-0.482 ± 0.2
K52D	-0.038 ± 0.15
K52P	-0.5 ± 0.2
K52A	-0.182 ± 0.13
K52F	-0.248 ± 0.22
K52H	0.223 ± 0.3
K52T	0.473 ± 0.14

Variants of: B2
Experiment: as above
Details: Homo sapiens

Variant	abundance fitness
L49W	-0.239 ± 0.043
L49I	-0.232 ± 0.14
L49Y	-0.048 ± 0.089
L49K	-0.002 ± 0.083
L49H	-0.073 ± 0.11
K33Y	-0.331 ± 0.09
K33A	-0.057 ± 0.048
K33C	-0.074 ± 0.074
K33G	-0.414 ± 0.054
E15H	-0.393 ± 0.23
E15L	-0.55 ± 0.055
E15N	-0.449 ± 0.14
E15I	-0.733 ± 0.18
E15M	-0.262 ± 0.079
E15T	-0.32 ± 0.085
P11Q	-0.38 ± 0.059
P11G	-0.268 ± 0.043
P11W	-0.519 ± 0.088
P11A	-0.367 ± 0.045
P11D	-0.382 ± 0.11
P11I	-0.424 ± 0.12
P11K	-0.153 ± 0.092
P11S	-0.417 ± 0.039
D19S	-0.163 ± 0.063

Variant	abundance fitness
D19I	-0.633 ± 0.05
D19K	-0.579 ± 0.2
D19H	-0.114 ± 0.094
D19Q	-0.66 ± 0.051
A43P	-0.184 ± 0.079
A43F	-0.357 ± 0.1
A43I	-0.092 ± 0.088
A43N	-0.014 ± 0.047
A43R	-0.11 ± 0.042
A43M	-0.044 ± 0.08
A43H	-0.161 ± 0.087
Y25G	-0.299 ± 0.041
Y25A	-0.278 ± 0.047
Y25W	-0.361 ± 0.061
Y25D	-0.333 ± 0.085
Y25L	-0.593 ± 0.053
L10S	-0.382 ± 0.069
L10G	-0.574 ± 0.055
L10P	-0.385 ± 0.1
L10C	-0.37 ± 0.1
L10Y	-0.571 ± 0.23
L10M	-0.286 ± 0.076
E37V	-0.286 ± 0.048
E37G	-0.213 ± 0.044

Variant	abundance fitness
E37Q	-0.176 ± 0.071
E37C	-0.292 ± 0.051
E37L	-0.213 ± 0.049
L4C	-0.593 ± 0.071
L4F	-0.051 ± 0.097
L4Q	-0.067 ± 0.081
L4G	-0.102 ± 0.059
L4E	-0.239 ± 0.044
L8P	-0.248 ± 0.083
L8K	0.095 ± 0.11
L8A	-0.042 ± 0.049
I24S	-0.144 ± 0.074
I24L	-0.223 ± 0.059
I24V	-0.066 ± 0.06
I24H	-0.64 ± 0.22
I24R	-0.203 ± 0.042
I24K	-0.238 ± 0.097
I24T	0.039 ± 0.047
E9D	-0.017 ± 0.1
E9W	-0.497 ± 0.089
E9Q	-0.137 ± 0.1
E9R	-0.179 ± 0.044
E9H	-0.095 ± 0.1
E9C	-0.149 ± 0.072

Variant	abundance fitness
G13P	-0.41 ± 0.047
G13I	-0.63 ± 0.084
G13Q	-0.282 ± 0.048
G13A	-0.458 ± 0.043
G13R	-0.59 ± 0.049
G13C	-0.339 ± 0.089
G13E	-0.425 ± 0.049
P20E	-0.426 ± 0.33
P20W	-0.339 ± 0.35
Q35D	-0.597 ± 0.11
Q35N	-0.516 ± 0.049
Q35T	0.009 ± 0.078
Q35R	-0.334 ± 0.051
Q35L	-0.423 ± 0.045
Q35C	-0.338 ± 0.095
L41G	-0.094 ± 0.04
L41Y	-0.021 ± 0.075
L41T	-0.058 ± 0.076
L41N	-0.137 ± 0.12
L41H	0.032 ± 0.044
E2S	-0.191 ± 0.096
E2Y	-0.403 ± 0.24
E2P	-0.266 ± 0.059
E2N	0.372 ± 0.12

Variant	abundance fitness
E2H	-0.523 ± 0.24
E2M	-0.265 ± 0.14
E2D	-0.314 ± 0.1
E2A	-0.185 ± 0.052
Y36T	-0.041 ± 0.078
Y36I	-0.185 ± 0.041
Y36M	0.096 ± 0.083
Y36D	-0.32 ± 0.069
Y36N	-0.176 ± 0.063
T1G	-0.118 ± 0.056
T1Y	-0.155 ± 0.074
T1C	-0.35 ± 0.26
T1W	-0.351 ± 0.2
T1I	-0.379 ± 0.27
T1V	-0.098 ± 0.089
T1E	0.069 ± 0.11
E18S	-0.33 ± 0.081
E18D	-0.15 ± 0.073
E18H	-0.094 ± 0.086
E18W	-0.745 ± 0.12
V21G	-0.307 ± 0.057
V21E	0.063 ± 0.081
V21F	0.041 ± 0.12
V21Y	-0.162 ± 0.063

Variant	abundance fitness
V21W	-0.241 ± 0.075
V21N	-0.056 ± 0.072
V21P	-0.322 ± 0.056
V21R	-0.012 ± 0.049
V21A	0.097 ± 0.058
Y26E	-0.213 ± 0.054
Y26K	-0.563 ± 0.056
Y26P	-0.404 ± 0.052
Y26T	-0.457 ± 0.1
K47L	-0.008 ± 0.053
K47E	-0.25 ± 0.094
K47H	-0.172 ± 0.059
K47Q	0.013 ± 0.059
K47R	-0.163 ± 0.043
I17V	0.072 ± 0.065
I17T	-0.266 ± 0.058
I17W	-0.322 ± 0.04
R32D	0.067 ± 0.087
D5F	-0.006 ± 0.17
D5P	0.023 ± 0.071
D5M	-0.421 ± 0.11
S6N	-0.171 ± 0.13
S6I	-0.184 ± 0.083
S6A	-0.033 ± 0.07

Variant	abundance fitness
S6M	-0.179 ± 0.1
S6H	-0.203 ± 0.073
S6Q	-0.046 ± 0.053
R45G	-0.113 ± 0.039
R45L	-0.302 ± 0.066
R45N	-0.363 ± 0.073
R45H	-0.564 ± 0.19
N38G	-0.45 ± 0.059
N38T	-0.341 ± 0.068
N38L	-0.271 ± 0.044
N38S	-0.066 ± 0.065
N38W	-0.138 ± 0.072
N38R	-0.079 ± 0.04
K46E	-0.256 ± 0.072
K46S	-0.093 ± 0.041
K46F	-0.27 ± 0.1
K46M	-0.328 ± 0.088
K46Y	-0.169 ± 0.094
K46V	-0.065 ± 0.041
K46G	-0.089 ± 0.038
N31T	-0.134 ± 0.063
N31C	-0.123 ± 0.077
N31P	-0.663 ± 0.071
N31I	-0.802 ± 0.16

Variant	abundance fitness
N31K	-0.265 ± 0.093
N31H	-0.069 ± 0.075
N31W	-0.843 ± 0.13
N31G	0.009 ± 0.04
N31F	-0.784 ± 0.15
V40R	-0.099 ± 0.054
V40A	0.068 ± 0.05
V40K	-0.055 ± 0.041
V40T	0.006 ± 0.08
V40N	-0.038 ± 0.1
W14E	-0.416 ± 0.057
W14F	-0.458 ± 0.14
W14D	-0.539 ± 0.12
W14P	-0.598 ± 0.046
W14R	-0.438 ± 0.038
W14A	-0.686 ± 0.092
K44V	-0.286 ± 0.062
K44L	-0.061 ± 0.039
K44Y	-0.041 ± 0.068
K44H	-0.196 ± 0.15
K44G	-0.068 ± 0.051
K44Q	-0.086 ± 0.077
K44F	-0.186 ± 0.072
K44D	-0.106 ± 0.082

Variant	abundance fitness
E42F	-0.535 ± 0.13
E42D	-0.192 ± 0.062
E42H	-0.599 ± 0.17
E42T	-0.086 ± 0.042
E42A	-0.225 ± 0.05
H29K	-0.157 ± 0.071
H29M	-0.386 ± 0.057
G23H	-0.822 ± 0.26
G23C	-1.08 ± 0.21
G23N	-0.822 ± 0.14
V27A	-0.096 ± 0.06
V27P	-0.394 ± 0.055
V27Q	-0.227 ± 0.087
Q48Y	-0.152 ± 0.052
Q48P	-0.528 ± 0.077
Q48T	-0.17 ± 0.051
Q48G	-0.221 ± 0.047
Q48A	-0.045 ± 0.044
Q48V	-0.115 ± 0.048
Q48S	-0.035 ± 0.049
Q48C	-0.134 ± 0.061
T34Q	-0.182 ± 0.072
T34L	-0.603 ± 0.079
T34D	-0.414 ± 0.094

Variant	abundance fitness
T34E	-0.316 ± 0.083
T34M	-0.265 ± 0.068
A12T	-0.145 ± 0.086
A12K	-0.113 ± 0.11
A12M	-0.594 ± 0.15
A12Y	-0.38 ± 0.11
A12R	0.016 ± 0.041
A12I	0.02 ± 0.072
I30V	-0.064 ± 0.044
I30G	-0.203 ± 0.042
I30D	-0.459 ± 0.083
I30N	-0.397 ± 0.08
I30S	-0.279 ± 0.063
I30P	-0.208 ± 0.076
E50L	-0.223 ± 0.18
E50S	-0.321 ± 0.11
E50T	-0.174 ± 0.046
E50H	-0.699 ± 0.28
E50K	-0.264 ± 0.22
E50D	0.006 ± 0.1
E7S	-0.153 ± 0.077
E7V	0.03 ± 0.044
E7F	-0.236 ± 0.068
E7Q	-0.404 ± 0.11

Variant	abundance fitness
E7K	0.111 ± 0.1
E7L	-0.057 ± 0.071
E7H	-0.217 ± 0.072
P39H	-1.3 ± 0.28
P39S	-0.597 ± 0.069
P39W	-0.894 ± 0.072
P39F	-1 ± 0.17
P39L	-0.615 ± 0.048
K16E	-0.327 ± 0.095
K16I	-0.134 ± 0.13
K16L	-0.447 ± 0.079
K16W	-0.802 ± 0.081
K16H	-1.03 ± 0.34
K16A	-0.474 ± 0.087
Y22V	-0.051 ± 0.063
Y22N	-0.199 ± 0.12
Y22C	-0.061 ± 0.055
Y22A	-0.041 ± 0.068
Y22M	-0.378 ± 0.099
D28M	-1.14 ± 0.15
D28V	-1.24 ± 0.067
D28C	-1 ± 0.066
